For one test, the target named is T1, human CD40 ECD- HAC tag (human).
T1 construct: also called CD4001006; recombinant monomeric human CD40 ectodomain (ECD)
The test is described as follows: SPR, binder captured on anti-human IgG, monomeric CD40 ECD injected, 1:1 fit.

The target in test [1] is T2, human CD40 full-length (human, UniProt P25942 21-277).
T2 construct: Also used for CD40 of Daudi cells, of CD40-expressing HEK293 cells and of the BPS CD40/NFkB HEK293 reporter cells where the row says so; also called CD4001012; CHOK1SV/CD40
The test can be described thus: flow cytometry, CHOK1SV/human CD40 cells.
Target sequence in this assay (P25942 21-277): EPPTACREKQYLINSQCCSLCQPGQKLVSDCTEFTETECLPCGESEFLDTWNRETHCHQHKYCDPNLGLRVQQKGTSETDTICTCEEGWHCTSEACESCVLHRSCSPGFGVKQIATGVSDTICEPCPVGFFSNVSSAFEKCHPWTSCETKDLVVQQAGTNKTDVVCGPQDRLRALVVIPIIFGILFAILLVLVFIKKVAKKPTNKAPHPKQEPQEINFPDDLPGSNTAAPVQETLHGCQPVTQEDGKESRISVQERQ

In test [2] the target is T2, human CD40 full-length. The test can be described thus: flow cytometry, CHOK1SV/human CD40 cells. The source holds these as a separate data set.
For another test, the target named is T3, Cynomolgus CHOK1SV/CD40.
T3 construct: also called Cyno CD40 full-length; CD4001013
T3 receptor chain: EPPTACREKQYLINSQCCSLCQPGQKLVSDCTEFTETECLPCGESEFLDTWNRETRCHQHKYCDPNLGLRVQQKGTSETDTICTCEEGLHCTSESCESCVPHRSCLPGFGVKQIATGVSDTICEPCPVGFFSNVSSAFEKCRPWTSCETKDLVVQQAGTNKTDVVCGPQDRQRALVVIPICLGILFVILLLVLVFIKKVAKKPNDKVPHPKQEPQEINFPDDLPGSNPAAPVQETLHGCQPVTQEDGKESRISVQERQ
The test is described as follows: flow cytometry, CHOK1SV/cynomolgus CD40 cells.

In test [3] the target is T2, human CD40 full-length. The test can be described thus: flow cytometry, CHOK1SV/human CD40 cells. This is another data set of the same source.

From patent publication US20260217833A1 (APTEVO RESEARCH AND DEVELOPMENT, published 2026) come the findings set out here.

Where two headings read alike, the source gives them in different places.

B1: CD4001100 (Fc fusion)
chain: DVQMTQSPILLSASVGDRVTITCRSSQSLVHYNGYTYVHWYQQRTNGSPRLLIYKVSNRFSGVPDRFSGSGSGTDFTLTISSLQPEDIADYFCQQTTHVPLTFGAGTKVEIKGGGGSGGGGSGGGGSGGGGSEVQLVESGGGLEQPGGSLRLSCAASGFTFSSYAMSWVRQAPGKGLEWVASISSAGTYIYYADSVKGRFTISRDNSKNTLYLQMNSLRAEDTAVYYCARHGNGYDPLWYFDVWGQGTTVTVSS
notes: As m65; not shown: wildtype IgG1 Fc region
In the test with human CD40 ECD- HAC tag, B1 yielded a Kd of 21 nM, a koff of 0.006 s⁻¹ and a kon of 290000 M⁻¹ s⁻¹. In addition, in the test with human CD40 full-length [1], the binding result is listed as “binds”.

B2: CD4001132 (Fc fusion)
chain: DVQMTQSPILLSASVGDRVTITCRSSQSLVHYNGYTYVHWYQQKPGKAPKLLIYKVSNLFSGVPSRFSGSGSGTDFTLTISSLQPEDIADYFCQQTTHVPLTFGAGTKVEIKGGGGSGGGGSGGGGSGGGGSEVQLVESGGGLVQPGGSLRLSCAASGFTFSSYAMSWVRQAPGKGLEWVSAISSAGTYIYYADSVKGRFTISRDNSKNTLYLQMNSLRAEDTAVYYCARHGNGYDPLWYFDVWGQGTTVTVSS
notes: as for B1
Regarding B2, in the test with human CD40 full-length [2], the “EC50 (read off the curve)” value was approximately 5 nM. Moreover, in the test with human CD40 ECD- HAC tag, the kon was determined as 240000 M⁻¹ s⁻¹.

B3: CD401136 (Fc fusion)
scFv: DIVMTQSPDSLALSLGERATMNCKSSQSLLFSVNQKNYLAWYQQKPGQPPKLLIYWASTRESGVPDRFSGSGSGTDFTLTISSLQAEDVAVYYCQHYYSYPWTFGQGTKLEIKGGGGSGGGGSGGGGSGGGGSQVQLVQSGAEVKKPGASVKVSCKASGYTFSTSWMEWVRQAPGQGLEWMGEILPGSGSTNYAQKFQGRVTMTRDTSTSTVYMELSSLRSEDTAVYYCARGDDGSYVRWYFDVWGQGTTVTVSS
notes: humanized 1D5 variant; also called CD4001136; not shown: human Fc (scFv-hFc format, scFv at the N-terminus) and its junction
With B3, in the test with human CD40 full-length [2], the binding result is recorded as “binds”.

B4: CD401135 (Fc fusion)
scFv: DIVMTQSPDSLALSLGERATMNCKSSQSLLFSVNQKNYLAWYQQKPGQPPKLLIYWASTRESGVPDRFSGSGSGTDFTLTISSLQAEDVAVYYCQHYYSYPWTFGQGTKLEIKGGGGSGGGGSGGGGSGGGGSQVQLVQSGAEVKKPGASVKVSCKASGYTFSTSWIEWVRQAPGQGLEWIGEILPGSGSTNYAQKFQGRATFTADTSTSTAYMELSSLRSEDTAVYYCARGDDGSYVRWYFDVWGQGTTVTVSS
notes: humanized 1D5 variant; also called CD4001135; not shown: human Fc (scFv-hFc format, scFv at the N-terminus) and its junction
For B4, the binding result with human CD40 full-length [2] is given as “binds”.

B5: CD401134 (Fc fusion)
scFv: DIVMTQSPDSLALSLGERATMNCKSSQSLLFSVNQKNYLAWYQQKPGQPPKLLIYWASTRESGVPDRFSGSGSGTDFTLTISSLQAEDVAVYYCQHYYSYPWTFGQGTKLEIKGGGGSGGGGSGGGGSGGGGSQVKLVQSGAEVKKPGASVKVSCKASGYTFSTSWIEWIRQAPGQGLEWIGEILPGSGSTNYAQKFQGRATFTADTSTSTAYMELSSLRSEDTAVYYCARGDDGSYVRWYFDVWGQGTTVTVSS
notes: humanized 1D5 variant; also called CD4001134; not shown: human Fc (scFv-hFc format, scFv at the N-terminus) and its junction
With B5, the binding result with human CD40 full-length [2] is “binds”.

B6: CD401137 (Fc fusion)
scFv: QIVMTQSPGTLSLSPGERATMTCKSSQSLLFSVNQKNYLAWYQQKPGQAPRLLIYWASTRESGVPDRFSGSGSGTDFTLTISRLEPEDAATYYCQHYYSYPWTFGAGTKLEIKGGGGSGGGGSGGGGSGGGGSQVQLVQSGAEVKKPGASVKVSCKASGYTFSTSWMEWVRQAPGQGLEWMGEILPGSGSTNYAQKFQGRVTMTRDTSTSTVYMELSSLRSEDTAVYYCARGDDGSYVRWYFDVWGQGTTVTVSS
notes: humanized 1D5 variant; also called CD4001137; not shown: human Fc (scFv-hFc format, scFv at the N-terminus) and its junction
As for B6, the binding result in the test with human CD40 full-length [2] was “binds”.

B7: PC401129 (bispecific antibody)
scFv-Fc-scFv chain: DIQMTQSPSSLSASVGDRVTITCRASQDINKFLSWYQQKPGKAPKLLIHYTSSLQSGVPSRFSGSGSGTDFTLTISSLQPEDFATYYCLQYDNLYTFGQGTKLEIKGGGGSGGGGSGGGGSGGGGSEVQLVESGGGLVQPGGSLRLSCAASGFTFSDYGMAWVRQAPGKGLEWVSFITSLAYIIYYADSVKGRFTISRDNAKNSLYLQMNSLRAEDTAVYYCARNYGSSPYYFDYWGQGTLVTVSSEPKSSDKTHTCPPCPAPPAAAPSVFLFPPKPKDTLMISRTPEVTCVVVDVSHEDPEVKFNWYVDGVEVHNAKTKPREEQYNSTYRVVSVLTVLHQDWLNGKEYKCAVSNKALPAPIEKTISKAKGQPREPQVYTLPPSRDELTKNQVSLTCLVKGFYPSDIAVEWESNGQPENNYKTTPPVLDSDGSFFLYSKLTVDKSRWQQGNVFSCSVMHEALHNHYTQKSLSLSPGGGGSPSDIQMTQSPSSVSASVGDRVTITCRASQSLNFSVNQKNYLAWYQQKPGKAPKLLIYWASSLQSGVPSRFSGSGSGTDFTLTISSLQPEDFATYYCQHYYSYPWTFGQGTKVEIKGGGGSGGGGSGGGGSGGGGSQVQLVQSGAEVKKPGSSVKVSCKASGYTFSTSWIEWIRQAPGQGLEWMGSILPGSGSTNYAQKFQGRVTITADTSTSTAYMELSSLRSEDTAVYYCARGDDGSYVRWYFDHWGQGTLVTVSS
notes: also called L-Leu30Asn
In the case of B7, the binding result with Cynomolgus CHOK1SV/CD40 and with human CD40 full-length [3] was “binds” throughout.

B8: PC401133 (bispecific antibody)
scFv-Fc-scFv chain: DIQMTQSPSSLSASVGDRVTITCRASQDINKFLSWYQQKPGKAPKLLIHYTSSLQSGVPSRFSGSGSGTDFTLTISSLQPEDFATYYCLQYDNLYTFGQGTKLEIKGGGGSGGGGSGGGGSGGGGSEVQLVESGGGLVQPGGSLRLSCAASGFTFSDYGMAWVRQAPGKGLEWVSFITSLAYIIYYADSVKGRFTISRDNAKNSLYLQMNSLRAEDTAVYYCARNYGSSPYYFDYWGQGTLVTVSSEPKSSDKTHTCPPCPAPPAAAPSVFLFPPKPKDTLMISRTPEVTCVVVDVSHEDPEVKFNWYVDGVEVHNAKTKPREEQYNSTYRVVSVLTVLHQDWLNGKEYKCAVSNKALPAPIEKTISKAKGQPREPQVYTLPPSRDELTKNQVSLTCLVKGFYPSDIAVEWESNGQPENNYKTTPPVLDSDGSFFLYSKLTVDKSRWQQGNVFSCSVMHEALHNHYTQKSLSLSPGGGGSPSDIQMTQSPSSVSASVGDRVTITCRASQSLLFSVNQKNYLAWYQQKPGKAPKLLIYWASSLQSGVPSRFSGSGSGTDFTLTISSLQPEDFATYYCQHYYSYPWTFGQGTKVEIKGGGGSGGGGSGGGGSGGGGSQVQLVQSGAEVKKPGSSVKVSCKASGYTFSTSWIEWIRQAPGQGLEWMGSIQPGSGSTNYAQKFQGRVTITADTSTSTAYMELSSLRSEDTAVYYCARGDDGSYVRWYFDHWGQGTLVTVSS
notes: also called H-Leu52Gln
In the case of B8, the binding result in the test with Cynomolgus CHOK1SV/CD40 and in the test with human CD40 full-length [3] was “binds” throughout.

B9: PC401132 (bispecific antibody)
scFv-Fc-scFv chain: DIQMTQSPSSLSASVGDRVTITCRASQDINKFLSWYQQKPGKAPKLLIHYTSSLQSGVPSRFSGSGSGTDFTLTISSLQPEDFATYYCLQYDNLYTFGQGTKLEIKGGGGSGGGGSGGGGSGGGGSEVQLVESGGGLVQPGGSLRLSCAASGFTFSDYGMAWVRQAPGKGLEWVSFITSLAYIIYYADSVKGRFTISRDNAKNSLYLQMNSLRAEDTAVYYCARNYGSSPYYFDYWGQGTLVTVSSEPKSSDKTHTCPPCPAPPAAAPSVFLFPPKPKDTLMISRTPEVTCVVVDVSHEDPEVKFNWYVDGVEVHNAKTKPREEQYNSTYRVVSVLTVLHQDWLNGKEYKCAVSNKALPAPIEKTISKAKGQPREPQVYTLPPSRDELTKNQVSLTCLVKGFYPSDIAVEWESNGQPENNYKTTPPVLDSDGSFFLYSKLTVDKSRWQQGNVFSCSVMHEALHNHYTQKSLSLSPGGGGSPSDIQMTQSPSSVSASVGDRVTITCRASQSLLFSVNQKNYLAWYQQKPGKAPKLLIYWASSLQSGVPSRFSGSGSGTDFTLTISSLQPEDFATYYCQHYYSYPWTFGQGTKVEIKGGGGSGGGGSGGGGSGGGGSQVQLVQSGAEVKKPGSSVKVSCKASGYTFSTSWIEWIRQAPGQGLEWMGSINPGSGSTNYAQKFQGRVTITADTSTSTAYMELSSLRSEDTAVYYCARGDDGSYVRWYFDHWGQGTLVTVSS
notes: also called H-Leu52Asn
As for B9, the binding result with Cynomolgus CHOK1SV/CD40 and with human CD40 full-length [3] was “binds” each time.

B10: CD4001133 (Fc fusion)
VH: EVQLVESGGGLVQPGGSLRLSCAASGFTFSSYAMSWVRQAPGKGLEWVSAISSAGTYIYYADSVKGRFTISRDNSKNTLYLQMNSLRAEDTAVYYCARHGNGYDPLWYFDVWGQGTTVTVSS
VL: DIQMTQSPSSLSASVGDRVTITCRASQSLVHYNGYTYLNWYQQKPGKAPKLLIYKVSNRFSGVPDRFSGSGSGTDFTLTISSLQPEDFATYYCQQTTHVPLTFGQGTKVEIK
notes: Tested as scFv on the N-terminus of a wildtype IgG1 Fc region; also called Humanized 5B9
Consider B10, for which the “EC50 (read off the curve)” value in the test with human CD40 full-length [2] was approximately 7 nM. In the test with human CD40 ECD- HAC tag, this molecule gave a Kd of 85 nM, a koff of 0.019 s⁻¹ and an on-rate constant (kon) of 230000 M⁻¹ s⁻¹.
